The nanobody polyreactivity screen of Harvey et al. (2022)

test: yeast display, Sf9 membrane polyspecificity reagent, FACS + sequencing; frameworks hold sequencing errors
In short: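 Nanobodies came from a synthetic yeast display library in Saccharomyces cerevisiae BJ5465, induced with galactose for 36–48 hours and stained for 1 hour at 4 °C with 10% biotinylated, detergent-solubilized Sf9 membrane reagent. Cells were enriched on streptavidin microbeads and then FACS-sorted, with low and high (top ~1%) gates set on anti-HA fluorescence for expression and streptavidin fluorescence for reagent binding. Each polyreactivity label reflects the gate a clone came from. Genes were amplified by colony PCR, sequenced by MiSeq 2 × 250 and filtered by CDR length.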

**Q.** For “QVQLVESGGGLVQAGGSLRLSCAASGRIFTTYTMGWYRQAPGKERELVAAISKRGGSTYYADSVKGRFTISRDNAKNTVYLQMNSLKPEDTAVYYCAAVGGRFFAPYIWSVDSYDYWGQGTQVTVSS”, which “polyreactivity (PSR sort gate)” value is on record?
**A.** The value was “high polyreactivity”.

**Q.** Which “polyreactivity (PSR sort gate)” value does the source give for “QVQLVESGGGLVQAGGSLRLSCAASGRIFTTYVMGWYRQAPGKEWELVAAISARGSTYYADSVKGRFTISRDNAKNTVYLQMNSLKPEDTEVYYCAAGPRLPVYYGYPRATYNDWGQGTQVTVSS” here?
**A.** Its value is “low polyreactivity”.

**Q.** Which “polyreactivity (PSR sort gate)” value does the source give for “QVQLVESGGGLVQAGGSLRLSCAASGRIFTVNAMGWYRQAPGKESELVASIRYRGSSTYYADSVKGRFTISRDNAKNTVYLQMNSLKPEDTAVYYCAAVVRQYRPPGLYDYWGQGTQVTVSS” here?
**A.** Its value is “high polyreactivity”.

**Q.** For “QVQLVESGGGLVQAGGSLRLSCAASGRIFTVYAMGWYRQAPGKERELVAAIDWSDGSTYYADSVKGRFTISRDNAKNTVYLQMNCLKPEVTAVYYCAAETYWVVEYDYWGQGTQVTVSS”, which “polyreactivity (PSR sort gate)” value is on record?
**A.** The value was “high polyreactivity”.

**Q.** Which “polyreactivity (PSR sort gate)” value does the source give for “QVQLVESGGGLVQAGGSLRLSCAASGRIFTVYAMGWYRQAPGKERELVAAISGRGGRTYYADSVKGRFTISRDNAKNTVYLQMNSLKPEDTAGYYCNADTLTLSRPDGDIHTVWMDYWGQGTQVTVSS” here?
**A.** The value was “low polyreactivity”.

**Q.** With “QVQLVESGGGLVQAGGSLRLSCAASGRIFTVYAMGWYRQAPGKERELVAAISRGGSTYADSVKGRFTISRDNAKNTVYLQMNSLKPEDTAVYYCAAVNFRKGEDYWGQGTQVTVSS” as the sequence, how does the “polyreactivity (PSR sort gate)” value read?
**A.** Its value is “high polyreactivity”.

**Q.** Which “polyreactivity (PSR sort gate)” value does the source give for “QVQLVESGGGLVQAGGSLRLSCAASGRIFTWSTMGWYRQAAGTERELVAAINRGGSTTYADSVKGRFTISRDNAKNTVYLQMNSLKPEDTAVYYCAAYRSTSRVYSNWRGYDYWGQGTQVTVSS” here?
**A.** The value was “high polyreactivity”.

**Q.** For “QVQLVESGGGLVQAGGSLRLSCAASGRIFTYNAMGWYRQAPGKERELVAAISYSGGRTDYADSVKGRFTISRDNAKNTVYLQMHSLKPEDTAVYYCAARPGPYWTVTFRSPKYYYWGQGTQVTVSS”, which “polyreactivity (PSR sort gate)” value is on record?
**A.** Its value is “high polyreactivity”.

**Q.** With “QVQLVESGGGLVQAGGSLRLSCAASGRIFTYNAMGWYRQAPGKERELVAAITYRGSSTYYADSVKGRFTISRDNAKNTVYLQMNSLKPEDTAVYYCAAPRLIRFVTYYSWGQGTQVTVSS” as the sequence, how does the “polyreactivity (PSR sort gate)” value read?
**A.** Its value is “high polyreactivity”.

**Q.** Which “polyreactivity (PSR sort gate)” value does the source give for “QVQLVESGGGLVQAGGSLRLSCAASGRIFTYYAMGWYRQAPGKERELVAAINWGVVTTYYADSVKGRFTISRDNAKNTVYLQMNSLKPEDSAVYYCAADWFAANYYVNPVSALYYWGQGTQVTVSS” here?
**A.** Its value is “low polyreactivity”.

**Q.** Which “polyreactivity (PSR sort gate)” value does the source give for “QVQLVESGGGLVQAGGSLRLSCAASGRIFTYYGMGWSRQAPGKEMELVAAISSSGDSTFYADSVKGRFTISRDNAKNTVYLQMNSLKPEDTAVYYCAADYYYVWYDYWGQGTQVTVSS” here?
**A.** Its value is “low polyreactivity”.

**Q.** With “QVQLVESGGGLVQAGGSLRLSCAASGRIFTYYPMGWYRQAPGKQRELVAAISWNGDSTYYADSVKGRFTISRDNAKNTVYLQMNSLKPEDTAVYYCIADSFTGYDYWGQGTQVTVSS” as the sequence, how does the “polyreactivity (PSR sort gate)” value read?
**A.** The value was “low polyreactivity”.

**Q.** For “QVQLVESGGGLVQAGGSLRLSCAASGRIFTYYTMGWYRQAPGKERELVAAISWSGGRTYYADSVKGRFTISRDNAKNTVYLQMNSLKPEDTAVYYCARLQDSRESPWRGYYWGQGTQVTVSS”, which “polyreactivity (PSR sort gate)” value is on record?
**A.** Its value is “high polyreactivity”.

**Q.** With “QVQLVESGGGLVQAGGSLRLSCAASGRIFTYYVMGWYRQAPWKERELVAAISYGGGSTYYADSVKGRFTISRDNAKNTVYLQMNSLKPEDTAGYYCAAEDGYRKMDYWGQGTQVTVSS” as the sequence, how does the “polyreactivity (PSR sort gate)” value read?
**A.** The value was “low polyreactivity”.

**Q.** With “QVQLVESGGGLVQAGGSLRLSCAASGRIFVAYAMGWYRQAPGKERELVADIDYIDGSTYYADSVKGRFTISRDNAKNTVYLQMNSLKPEDTAVYYCAVDSLYYAGYYDYWGQGTQVTVSS” as the sequence, how does the “polyreactivity (PSR sort gate)” value read?
**A.** Its value is “high polyreactivity”.

**Q.** With “QVQLVESGGGLVQAGGSLRLSCAASGRIFVDNDMGWYRQAPGKERELVAAISGNGGNTNYADSVKGRFTISRDNAKNTVYFQMNSLKPEDTAVYYCAATYPVGHVYRYDYWGQGTQVTVSS” as the sequence, how does the “polyreactivity (PSR sort gate)” value read?
**A.** The value was “low polyreactivity”.

**Q.** For “QVQLVESGGGLVQAGGSLRLSCAASGRIFVDNDMGWYRQAPGKERELVAAISGNGGNTNYADSVKGRFTISRDNAKNTVYLQMNSLKPEDTAVYYCAATYPVGHVYRYDYWGQGTQVTVSS”, which “polyreactivity (PSR sort gate)” value is on record?
**A.** The value was “low polyreactivity”.

**Q.** With “QVQLVESGGGLVQAGGSLRLSCAASGRIFVFYAMGWYRQAPGKERELVAAITSGGSTYYADSVKGRFTISRDNAKNTVYLQMNSLKPEDTAVYYCAARGRVSWSTYWYEYWGQGTQVTVSS” as the sequence, how does the “polyreactivity (PSR sort gate)” value read?
**A.** Its value is “high polyreactivity”.

**Q.** Which “polyreactivity (PSR sort gate)” value does the source give for “QVQLVESGGGLVQAGGSLRLSCAASGRIFVGNTMGWYRQAPGKERELVAAITYRGGSTYYADSVKGRFTISRDNAKNTVYLQMNSLKPEDTAVYYCATAGYWGGDYWGQGTQVNVSS” here?
**A.** The value was “low polyreactivity”.

**Q.** With “QVQLVESGGGLVQAGGSLRLSCAASGRIFVGYAMGWFRQAPGKERELVAAINRSGSSTYYADSVNGRFTISRDNAKNTVYLQMNSLKPEDTAVYYCAARYYPRVRYATYYGSYYWGQGTQVTVSS” as the sequence, how does the “polyreactivity (PSR sort gate)” value read?
**A.** Its value is “high polyreactivity”.

**Q.** For “QVQLVESGGGLVQAGGSLRLSCAASGRIFVGYAMGWSRQAPRNERELVAAISDRGGNTYYADSVKGRFTISRDNAKNTVYFQMNSLKPEDTAVYYCAKEVRWWYGYWGQGTQVTVSS”, which “polyreactivity (PSR sort gate)” value is on record?
**A.** Its value is “high polyreactivity”.

**Q.** Which “polyreactivity (PSR sort gate)” value does the source give for “QVQLVESGGGLVQAGGSLRLSCAASGRIFVGYAMGWYRQAPGKERELVAAINRSGSSTYYADSVKGRFTISRDYAKITVYLQMNSLKPEDTAVYYCNARSGNRYGPRYDYWGQGTQVTVSS” here?
**A.** Its value is “high polyreactivity”.

**Q.** Which “polyreactivity (PSR sort gate)” value does the source give for “QVQLVESGGGLVQAGGSLRLSCAASGRIFVGYAMGWYRQAPGKERELVAAISARGGSTYYADSVMGRFTISRDNAKNTVYLQMNSLKPEDTADYYCAADEASSRGYYDSDYWGQCTQVTVSS” here?
**A.** The value was “low polyreactivity”.

**Q.** With “QVQLVESGGGLVQAGGSLRLSCAASGRIFVGYAMGWYRQAPGKERELVATITGSGGRTYYADSVKGRFTISRDNAKNTVYLQMNSLKPEDTAVFYCATRPPLFYYDDHDDDDYWGQGTQVTVSS” as the sequence, how does the “polyreactivity (PSR sort gate)” value read?
**A.** Its value is “low polyreactivity”.

**Q.** For “QVQLVESGGGLVQAGGSLRLSCAASGRIFVHYAMGWYRQAPGKEREWVAAITSGSSTNYADSVKGRFTISRDNAKNTVYLQMNSLKPEDTAVYYCAVDDWLDWLCADFGYWGQGTQVTVSS”, which “polyreactivity (PSR sort gate)” value is on record?
**A.** The value was “low polyreactivity”.

**Q.** Which “polyreactivity (PSR sort gate)” value does the source give for “QVQLVESGGGLVQAGGSLRLSCAASGRIFVKNAMGWYRQAPGKERELVAGISRGGSTYYADSVKGRFTISRDNAKNTVYLQMNSLKPEDTAVYYCATRNYGRGQFDYWGQGTQVTVSS” here?
**A.** The value was “high polyreactivity”.

**Q.** With “QVQLVESGGGLVQAGGSLRLSCAASGRIFVKYAMGLYRQAPGKERELVAAIRSGGSTYYADSVKRRFTISRDNAKYTVYLQMNSLKPEDTAVYYCAADRNKHHYYNEPYDYWGQGTQVTVSS” as the sequence, how does the “polyreactivity (PSR sort gate)” value read?
**A.** Its value is “low polyreactivity”.

**Q.** Which “polyreactivity (PSR sort gate)” value does the source give for “QVQLVESGGGLVQAGGSLRLSCAASGRIFVNNAMGWYRQAPGKEREFVAGISFSGDGRTYYADSVKGRFTISRDNAKNTVYLQMNSLKPEDTAVYYCAAPHRSRTHELDYWGQGTQVTVSS” here?
**A.** The value was “low polyreactivity”.

**Q.** With “QVQLVESGGGLVQAGGSLRLSCAASGRIFVNYAMGWYRQAPGKERELDAAITSDGSTSYADSVKGRFTISRDNAKNTVYLQMNSLKPEDTAVYYCAKDFFEHSPVSHTYSSSKYDYWGQGTQVTVSS” as the sequence, how does the “polyreactivity (PSR sort gate)” value read?
**A.** Its value is “low polyreactivity”.

**Q.** Which “polyreactivity (PSR sort gate)” value does the source give for “QVQLVESGGGLVQAGGSLRLSCAASGRIFVPYAMGWYRQAPGKERELVATITFGGGRTYYADSVKGRFTISRDNAKNTVYLQMNSLKPEDTAVYYCAADYYLWRLPVYAQRSFVRGDYWGQGTQVTVSS” here?
**A.** The value was “low polyreactivity”.
